Consider one substance from article PMC8897276.

In assay [1] the target is A2Moo (ovomacroglobulin), the Xenopus laevis egg Alpha-2-Macroglobulin homolog (Xenopus laevis). Nature of the assay: cryo-EM structure.
Assay [2] has the same target. Nature of the assay: cryo-EM structure. The source holds these as a separate data set.

Like-named read-outs stand apart in the source and are kept apart here.

By stoichiometry N is commonly meant a count of units in the complex or per binding partner. With “A2Moo (ovomacroglobulin), the Xenopus laevis egg Alpha-2-Macroglobulin homolog (from UniProt A0A8J1L4C4 1-1441) (natural protein)”, the stoichiometry N in assay [1] and in assay [2] was 4 throughout.
